{"source": "paper PMC4968207", "key": {"[1]": {"target": "Germline κI O18/O8 light chain variable domain (VL) (human)"}, "[2]": {"target": "Germline κI O18/O8 light chain variable domain (VL) (human)", "remark": "listed apart in the source"}}}
{"substance": "Germline κI O18/O8 light chain variable domain (VL) (domain or fragment)", "values": [{"measurement": "t50 of de novo (nonseeded) ThT fibril formation of 20 µM κI, pH 2.0, 37 °C", "setting": "[1]", "result": 266, "unit": "h"}, {"measurement": "yield of de novo fibril formation (percent of the initial monomer in fibrils)", "setting": "[2]", "result": 93.4, "unit": "%"}]}
